Source: US7368293 (ROCKEFELLER UNIVERSITY, dated 2008)

Biological target: the molecule itself
Test: in vitro translation, gel mobility-shift with 32P APF-1 probe; inferred from heterodimer bands and absence of monomer complexes
Protocol: Since amino acids in the ligand binding domain of the estrogen receptor are known to be necessary for receptor dimerization and subsequent DNA binding (Kumar & Chambon, 1988; Fawell et al., 1990), we determined whether HNF-4 binds to its recognition site as a monomer or as a dimer. The full length cDNA (Xho I) was co-translated in vitro with either of the two truncated products that bind DNA (PflM I and Hga I) and the products were tested in the mobility-shift assay. When the full length and truncated transcripts were translated together, complexes of intermediate mobility were produced with both the APF-1 probe (lanes 3 and 5, FIG. 5D) and the −151 to −130 TTR probe (not shown).

B1: HNF-4 (hepatocyte nuclear factor 4), full length protein translated in vitro from pf7 cDNA (Xho I-cut template) (receptor)
chain: MDMADYSAALDPAYTTLEFENVQVLTMGNDTSPSEGANLNSSNSLGVSALCAICGDRATGKHYGASSCDGCKGFFRRSVRKNHMYSCRFSRQCVVDKDKRNQCRYCRLKKCFRAGMKKEAVQNERDRISTRRSSYEDISLPSINALLQAEVLSQQITSPISGINGDIRAKRIASITDVCESMKEQLLVLVEWAKYIPAFCELLLDDQVALLRAHAGEHLLLGATKRSMVFKDVLLLGNDYIVPRHCPELAEMSRVSIRILDELVLPFQELQIDDNEYACLKAIIFFDPDAKGLSDPGKIKRLRSQVQVSLEDYINDRQYDSRGRFGELLLLLPTLQSITWQMIEQIQFIKLFGMAKIDNLLQEMLLGGSASDAPHAHHPLHPHLMQEHMGTNVIVANTMPSHLTNGQMSTPETPQPSPPSGSGSESYKLLPGAITTIVKPPSAIPQPTITKQEAI
notes: Translated in rabbit reticulocyte lysate from T3/T7 transcripts of pf7 (rat liver cDNA); also called full length cDNA (Xho I); in vitro synthesized HNF-4
B1: binds.
